Columns and labels:
Assay type in all cases: biochemical
[1] = Enzymic reaction of UGT76G1 wild-type and mutants in vitro, substrate orientin, products detected by HPLC; details: in words
Description: (§1) The enzymic reaction system (50 μL) includes: 5 μg protein, 1.5 mM UDP-glucose, 250 μM glycosyl acceptor substrate isoorientin, orientin, apigenin or luteolin, and Buffer A (20 mM Tris-HCl, pH=8.0, 100 mM NaCl). The reaction of each mutant protein for the same substrate was repeated three times. Reaction conditions: 37° C. overnight. The reaction was quenched with an equal volume of methanol. After vigorous shaking, the reaction was centrifuged at 12000 rpm for 30 min. The supernatant was used for HPLC detection. Detection method: mobile phase A (acetonitrile, containing 0.1% formic acid)—mobile phase B (water, containing 0.1% formic acid) gradient elution. Chromatographic conditions: gradient elution from initial 5% A to 50% A within 11 min, elution at 100% A for 4 min, and back to 5% A within 1 min for equilibration for 4 min. The peak area of the catalytic product of the mutant was calculated and compared with the peak area of the catalytic product of wild-type UGT76G1.

[2] = Enzymic reaction of UGT76G1 wild-type and mutants in vitro, substrate isoorientin, products detected by HPLC; details: for conversion efficiency of isoorientin (compound 1): HPLC analysis of FIG. 1; for conversion efficiency of isoorientin (compound 1) / glycosylation efficiency: in words; for yield of compound 2 as compared with the wild type / yield of compound 3 as compared with the wild type: substrate isoorientin 250 μM, 5 μg protein, 1.5 mM UDP-glucose, 37° C. overnight, HPLC peak area, 100% for the wild type; for glycosylation efficiency: substrate isoorientin, versus wild type
Description: The enzyme activity of the glycosyltransferase UGT76G1 mutant can be detected by a technique known in the art. In a specific example of the present invention, the enzyme reaction system with the same conditions is used to detect the enzyme activity of different mutants in vitro. After the reaction, the product was detected by HPLC. The change of a mutant's catalytic activity was analyzed by comparing the relative conversion ratio of the flavonoid isoorientin by the mutant and the wild-type protein.
as §1

[3] = Enzymic reaction of UGT76G1 wild-type and mutants in vitro, substrate apigenin, products detected by HPLC; details: HPLC analysis of FIG. 7; compared with wild-type (WT) or mutants I90L, I199L; in words
Description: as §1

[4] = Enzymic reaction of UGT76G1 wild-type and mutants in vitro, substrate luteolin, products detected by HPLC; details: HPLC analysis of FIG. 8; compared with wild-type (WT) or mutants I90L, I199L; in words
Description: as §1

[5] = substrate orientin, versus wild type

B1: wild-type UGT76G1: wild-type glycosyltransferase UGT76G1 derived from Stevia rebaudiana, amino acid sequence of SEQ ID NO: 1 (protein, listed as Stevia rebaudiana)
chain: MENKTETTVRRRRRIILFPVPFQGHINPILQLANVLYSKGFSITIFHTNFNKPKTSNYPHFTFRFILDNDPQDERISNLPTHGPLAGMRIPIINEHGADELRRELELLMLASEEDEEVSCLITDALWYFAQSVADSLNLRRLVLMTSSLFNFHAHVSLPQFDELGYLDPDDKTRLEEQASGFPMLKVKDIKSAYSNWQILKEILGKMIKQTKASSGVIWNSFKELEESELETVIREIPAPSFLIPLPKHLTASSSSLLDHDRTVFQWLDQQPPSSVLYVSFGSSSEVDEKDFLEIARGLVDSKQSFLWVVRPGFVKGSTWVEPLPDGFLGERGRIVKWVPQQEVLAHGAIGAFWTHSGWNSTLESVCEGVPMIFSDFGLDQPLNARYMSDVLKVGVYLENGWERGEIANAIRRVMVDEEGEYIRQNARVLKQKADVSLMKGGSSYESLESLVSYISSL
conversion rate for orientin (compound 4) ([1]; HPLC analysis of FIG. 5): a certain conversion rate | conversion efficiency of isoorientin (compound 1) [2]: low

B2: L204F: glycosyltransferase UGT76G1 mutant, mutation of L at 204th to F (SEQ ID NO: 4) (protein)
chain: MENKTETTVRRRRRIILFPVPFQGHINPILQLANVLYSKGFSITIFHTNFNKPKTSNYPHFTFRFILDNDPQDERISNLPTHGPLAGMRIPIINEHGADELRRELELLMLASEEDEEVSCLITDALWYFAQSVADSLNLRRLVLMTSSLFNFHAHVSLPQFDELGYLDPDDKTRLEEQASGFPMLKVKDIKSAYSNWQILKEIFGKMIKQTKASSGVIWNSFKELEESELETVIREIPAPSFLIPLPKHLTASSSSLLDHDRTVFQWLDQQPPSSVLYVSFGSSSEVDEKDFLEIARGLVDSKQSFLWVVRPGFVKGSTWVEPLPDGFLGERGRIVKWVPQQEVLAHGAIGAFWTHSGWNSTLESVCEGVPMIFSDFGLDQPLNARYMSDVLKVGVYLENGWERGEIANAIRRVMVDEEGEYIRQNARVLKQKADVSLMKGGSSYESLESLVSYISSL
modifications: Variant
production efficiency of product 5 [1, 5]: can increase | yield of compound 2 as compared with the wild type [2]: 285% | yield of compound 3 as compared with the wild type [2]: 159% | glycosylation efficiency [2]: significantly increased | glycosylation products of apigenin (compound 7) [3]: significantly different from those converted by wild-type | glycosylation products of luteolin (compound 8) [4]: significantly different from those converted by wild-type

B3: I199F: glycosyltransferase UGT76G1 mutant, mutation of I at 199th to F (SEQ ID NO: 3) (protein)
chain: MENKTETTVRRRRRIILFPVPFQGHINPILQLANVLYSKGFSITIFHTNFNKPKTSNYPHFTFRFILDNDPQDERISNLPTHGPLAGMRIPIINEHGADELRRELELLMLASEEDEEVSCLITDALWYFAQSVADSLNLRRLVLMTSSLFNFHAHVSLPQFDELGYLDPDDKTRLEEQASGFPMLKVKDIKSAYSNWQFLKEILGKMIKQTKASSGVIWNSFKELEESELETVIREIPAPSFLIPLPKHLTASSSSLLDHDRTVFQWLDQQPPSSVLYVSFGSSSEVDEKDFLEIARGLVDSKQSFLWVVRPGFVKGSTWVEPLPDGFLGERGRIVKWVPQQEVLAHGAIGAFWTHSGWNSTLESVCEGVPMIFSDFGLDQPLNARYMSDVLKVGVYLENGWERGEIANAIRRVMVDEEGEYIRQNARVLKQKADVSLMKGGSSYESLESLVSYISSL
modifications: Variant
yield of compound 2 as compared with the wild type [2]: 799% | yield of compound 3 as compared with the wild type [2]: 278% | glycosylation efficiency [2]: significantly increased

B4: L379W: glycosyltransferase UGT76G1 mutant, mutation of L at 379th to W (SEQ ID NO: 5) (protein)
chain: MENKTETTVRRRRRIILFPVPFQGHINPILQLANVLYSKGFSITIFHTNFNKPKTSNYPHFTFRFILDNDPQDERISNLPTHGPLAGMRIPIINEHGADELRRELELLMLASEEDEEVSCLITDALWYFAQSVADSLNLRRLVLMTSSLFNFHAHVSLPQFDELGYLDPDDKTRLEEQASGFPMLKVKDIKSAYSNWQILKEILGKMIKQTKASSGVIWNSFKELEESELETVIREIPAPSFLIPLPKHLTASSSSLLDHDRTVFQWLDQQPPSSVLYVSFGSSSEVDEKDFLEIARGLVDSKQSFLWVVRPGFVKGSTWVEPLPDGFLGERGRIVKWVPQQEVLAHGAIGAFWTHSGWNSTLESVCEGVPMIFSDFGWDQPLNARYMSDVLKVGVYLENGWERGEIANAIRRVMVDEEGEYIRQNARVLKQKADVSLMKGGSSYESLESLVSYISSL
modifications: Variant
production efficiency of product 6 [1, 5]: can increase

B5: G87F: glycosyltransferase UGT76G1 mutant, mutation of G at 87th to F (SEQ ID NO: 2) (protein)
chain: MENKTETTVRRRRRIILFPVPFQGHINPILQLANVLYSKGFSITIFHTNFNKPKTSNYPHFTFRFILDNDPQDERISNLPTHGPLAFMRIPIINEHGADELRRELELLMLASEEDEEVSCLITDALWYFAQSVADSLNLRRLVLMTSSLFNFHAHVSLPQFDELGYLDPDDKTRLEEQASGFPMLKVKDIKSAYSNWQILKEILGKMIKQTKASSGVIWNSFKELEESELETVIREIPAPSFLIPLPKHLTASSSSLLDHDRTVFQWLDQQPPSSVLYVSFGSSSEVDEKDFLEIARGLVDSKQSFLWVVRPGFVKGSTWVEPLPDGFLGERGRIVKWVPQQEVLAHGAIGAFWTHSGWNSTLESVCEGVPMIFSDFGLDQPLNARYMSDVLKVGVYLENGWERGEIANAIRRVMVDEEGEYIRQNARVLKQKADVSLMKGGSSYESLESLVSYISSL
modifications: Variant
conversion efficiency of isoorientin (compound 1) [2]: relatively the highest | yield of compound 2 as compared with the wild type [2]: 1381% | yield of compound 3 as compared with the wild type [2]: 1235% | glycosylation efficiency [2]: significantly increased | glycosylation products of apigenin (compound 7) [3]: significantly different from those converted by wild-type | glycosylation products of luteolin (compound 8) [4]: significantly different from those converted by wild-type

— patent US12448610B2, “Preparation of glycosyltransferase UGT76G1 mutant and use thereof” (CAS Center for Excellence in Molecular Plant Sciences, priority 2019, dated 2025)
